Reference: the DeepSol protein solubility set

assay: soluble on expression in E. coli; label from the status in PepcDB or PDB records

Sequence	soluble on expression in E. coli
MIWLVLVLSLFLFSCEKLNEIFLEEDLLQRPPSKRCSDCHAKIYEDWEKSRHAKAWVSEHFKEESENYSKLKCLSCHAPHQVDPLKKPVLRVERRHEGVNCIACHFKEETKAMHGPYKVFSPPHPSREDKNYTKSEICAGCHQKTYREWKIARVKTTCQQCHMKVVDYAWIMDKFPFFLFHSRKALHDHTFPAGKATPKDIKLILTEGALNIINVGIPHNLPTADQGNPKLYLIIEFYYKDGKKKVLRRVLSPQAKTALAYLIPYTVKIPRYEKLEKVRVSIYRRLAWEKKRELILSEELKKPF	not soluble
MQIQQNNSLIYNTLTKKLSSFIPIKSTRRKLRNHIQYKLEHPKVTNYLSNNYINPFLEGKIPHFDFEKKHYFKNDKIIWQFWYQGKNQASPMIQQCFNSVQSQMKDDYTIIILDKDNIKDYLDFPPFVIEKLENNFFGEKTITFFSDLLRVCLLATYGGIWCDASIFLSSKIPSELCDKDFFTFERSKIKPSKEKLKKFIKSGYFSYGYFNWNDDFKVKMLSSFMIAKTNNTFIQTLKDILMNYWKNEQSSENHYYFILHIIFELLKEHGFVNDIYKNMSDIECHLLQFSAKEKFNSTLWEEIQKQSFLHKLTHFKSIKKDSMIDKIILQSLEHHHHHH	soluble
EAVREMVCEDDLSQTFITDGSLPACDITLEQAQNLARHVWGQGFAPPSFTDEFHVVRQQPLGAEGKHKKVWLQKDGCEFEAMFWRCSEDIPEYIRTVYRPVANEWRNNLELQLYIDYWEAA	not soluble
AIAATPTEHEDLSEQEVTEDEFKTPKIRETPEDIKLEAIVNTIAFHPKQDILAAGDIDGDIYLFSYSCTEGENKELWSSGHHLKSCRKVLFSSDGQKLFSVSKDKAIHIMDVEAGKLETRIPKAHKVPINAMLLIDENIFATGDDEGTLKVWDMRKGTSFMDLKHHEDYISDITIDQAKRTLLTSSGDGTLGVFNIKRRRFELLSEIQNGDLTSVSIMKRGRKVVCGSGEGTIYIFNWNGFGATSDRFAVQAESVDCIVPITDSILCAASTDGVIRAINILPNRVVGSIGQHVGEAIEEIARCRDTHFLASCAHDELIKFWDISSLPDEKVNDYRRRKKKDRRLKALSNKAFDTGQNFFAGLLDTTEENGKEGENDEDDDDEDSDSGSD	soluble
MCSVKPKYISLPEQNSLCSLPNSGCCQVEVKIGRSKWEQQKAILVKVDGEPAGKIFIYSQPLIGQMYPLHELKSMGVICEKAGDFLVNLVTERGLKLTFKPIGSTANCFVTALVSGNFTSLTHETHIKTPLQNQEATTSPTIESDLTDKPDTNVYTGSREGYVAPSEKGSNEKKKEVVPNGGDKSVENKKGSDRNVKKTPSKTVTKPLLSESRKRKEAKTLATTQSQDLPAPTKDEPERTNSEPDNGEQEKIKKEKKKGTETSLKDGKNKLNEKIVKPAPTTTPDAGNGGLTPGKEDNKKTVTTSSVEIEVPEKKKAVENAGIIKIS	not soluble
NRMKLMIVGNTGSGKTTLLQQLMKTKKSDLGMQSATVGIDVKDWPIQIRDKRKRDLVLNVWDFAGREEFYSTHPHFMTQRALYLAVYDLSKGQAEVDAMKPWLFNIKARASSSPVILVGTHLDVSDEKQRKACMSKITKELLNKRGFPAIRDYHFVNATEESDALAKLRKTIINESLNFKIRDQ	soluble
MNRHLIHRRDILDTLVADLQAQQPDHIAVTGDLVNIALVNEFAPARQWLESVGPADRVSLVPGNHDAYVRSTAHRFAETFPDYISGDDATPGFPYLRRREAIAIIGVSSAVPTAPLRATGWLGAPQRAALEALLQSLAGERVFKVLLIHHPLQSRSRHKRLTDAADLIALLQRHPVDLVLHGHDHVHATVRIDTPFGAIPVVGVPSASAMNDRHRPSAAYNLFKISEGNLEHHHHHH	soluble
MSLKIAVIGCGAMGSIYAAKLAAAGEQVLAVDRHRPSVERINRDGLRVTGPGCDQVVPLRASTGAVDETMDLVVLAVKAADVEAAARQALPMLGPDTAVLTIQNGLGSAETVAGVVGAQRVAVGIASGFGASRVAPGHVHHNAMRAMRFGPYSSLPHARVESIARTWAHAGFDAAAVTDIAAMQWEKLICNVAYSAPCALTGMTVGQVMDDAEMGPVSRAAATEAWSVARASGVAIAVADAVEHVRAFGAQMPDAKPSALLDHEARRVSEIDVINGAVPRQGARVGVDAPVNATLTAVVKSIERRWREGHHHHHH	not soluble
MPKSNPVTPNKQPSEDWNELLTEFRGKGGRALQKTFIRKLWAVQEDIIANANPSTLRCIFFAPALLICPEGIKLSAEILPKIGVGNGLILLEKLILKFNLTDTECQRYGEVFVTAWRNAYQEANFDLTEELETDVISVMCQHALYAHRPTCTKFQNVIAAFAHAKKLDKSVDEMVTRLLNGCLYRALDAPNYIVQSSAAEVFFNFYPLIGEDTEDMDRIMENQHRYMMDLLRSDVISIRSEATKHVLKAISEFWLLIPKNIVKELMGYIIDTVAKDTVVSVRVAVFEGLNEMAFVPACLTAFEYGLKCAVDPALQDKSERVRLAAYQIISRLKNHKFISVFDIITRDDAIAKLDLENVETCRRQLIPIMHICLPISKSLDEAYYRPRVNYMLGKSRLALLSYFRLLGPMKIIDASQASKLIEMFITWAYRYLRKKDGPPLPETAEGYKKARAYLECALILYMSCKGMLMSDGDGTSKAKCDQIFGKVVKEIFEKYANTPILGTATAISSVIPKDYLKSIANDVLARLEDDDVPPEAVEPFLESAIHFNPDSVFDSFDSGLNVLVNLYGTKQSKKKRRELEDPEDVLIMTLNRLKYLLQSHSTSNLIAMKDEYRTKVLDLLKKIDLIREGIEIRLAKEEGQEHTLSDDVLLSILEFRFILPFFAATNGSEDAADRNQTIESMKNLLLWFEKNISSQMATFGEHNQDFLIQLTSTFLNCVNVSLSAYDFKTRPVEFEDEEDNENRDPREENDAAKDQATVAEVISRIVKSFCNSSTPFEIFRPALRVGTTLCDESYSEVHHEMALLLRFIPKWMNKQCDLMEDDEENIFKNHREIVESLRQFHKRVSETDYWDEDSAKRMMHHFMLFSIVSASSKNDDEAYDDPRDEDYKPPHFISLALIKFILKEKSLTEDIIEEISTNYIPEDSKYFTAEEGELKTDEKLSKLAALSQLLRILERYSKFHGKLIKEAIDKCTTRVLDCFANASDLNTVAHHILNSLSSLLDVQLPDENRL	not soluble
MGSDKIHHHHHHMIDVAIIGGGHNGLVTAAYLAKAGLKVAVFERREIVGGASVTEELWPSIKVSTGAYVLSLLRPKIIEELKLREFGLKVYLKDPGLFLPFENGKKLYIWSSLEKTKKEIEKFSKNDAKNYKKWVKFWDLFAEMADFFMLNPPPHIDEASNLINIFRGNVNEELALSFLRTFMQDAKSLLDEYFETDEVKSALAEDSVVGTFASPSTPGTAYVLAHHVIGEVNGVKGAWGYVEGGMGEVTQALKRSAEHLGVEIYTNAEVDEVLVKNGRVEGIKLKNGKTINAKIIVSNADPKTTFFKLLRNAELEEDFLRRVRALKNVGVSFKIVGYLEELPDFGNGKSLSPEHIASELIMPNMEYIEKAYDDARALGYSREPWLSINIQSSVDPTVAPPGKFSFSIFGQYLVYDSKRNDEMKEKIAEITFEKIKEFAPNFKPIKYEVLTPLDIERRFGINGGNIFHLDMTPDQLYFFRPLIGYSDYTTPIRGLYLCGSGTHPGGGVTGAPGYNAHVKILEDLRKGIYK	not soluble
MAHHHHHHMALYIIGLGLGDERDVSVRGKELIEMSDVVYLESYTSVLFVSKNALEEFYKKNIKEVDRNFAEENCEEILEEAVNKKVSFLVVGDPLCATTHHDIILRAKKKNINVQVIHNASIMSAIGESGMQLYNFGQTVSIPYFEETYKPTSFYDKIKVNLDNNFHTLCLLDIKVKERTIENLMKNKNIYEPPRYMTINEAIEQLLYCEEVHKKNVITDNTRGIAIVRIGSNSQQIVSGNLLTLKTIKYNDPLHSLIICAPTLHDVEREYFDMYMHK	not soluble
MGSDKIHHHHHHMSEVYRQNPKVEAIILAGSVARKLEDEHSDIELHILWSMPPEDEDRKGPINYIGGTILSYHPYEEEEWSETYLTKEGIKLEISNFLTETVEKVIEDVVVQYDISYEKQCIVSSIHDGASLYGEEKVHELKDRVLAYPEDLAKRMISENLWLSNRWHNREALLKRKDWLMLYDVICEAQRNIFGVLFGLNKMYVHHPAFKWMPYNVERMIIKPENLYERMTNTLIGKPEYSIQELGVLIEELLQLVEHHAPELHIAEQQKRIQYAK	not soluble
